Assay results: publication PMC5404920

Target: Mg-ATP actin (15% Alexa 488-labeled), assembled into actin filaments (F-actin) (not stated (chicken or rabbit skeletal muscle)) (UniProt P68135)
Assay: TIRF microscopy; two-color TIRFM of 1.5 μM Mg-ATP actin (15% Alexa 488) assembling with Cy5-labeled Cdc8 at 1 μM and above; 10 mM imidazole pH 7.0, 50 mM KCl, 1 mM MgCl2, 1 mM EGTA, 0.5% methylcellulose, room temperature

kon per unit filament length of the first observed Cdc8 binding (random-binding model fitted to the TIRFM data) [s⁻¹ nm⁻¹]	percent of F-actin coated at 2 μM Cdc8 and higher [%]	percent of actin filament sites coated at 1.25 μM Cdc8 [%]	percent of actin filaments associated with tropomyosin [%]	percent of total actin filament coverage at 1 μM Cdc8 [%]	spreading rate of Cdc8 toward the barbed end (Cdc8 molecules sec^-1 μM^-1)	spreading rate of Cdc8 toward the pointed end (Cdc8 molecules sec^-1 μM^-1)	Substance
4e-06	98	40	100	2	3.2	2.4	tropomyosin AlaSer-Cdc8 I76C, Cy5-labeled (natural protein)
–	–	–	100	–	–	–	tropomyosin AlaSer-Cdc8 D142C, Cy5-labeled (natural protein)
